Biological target: the molecule itself
Experiment: crystal structure

B1: C-terminal domain truncation of the Mycobacterium tuberculosis mechanosensitive channel of large conductance (MtMscLΔC) (domain or fragment)
chain: MLKGFKEFLARGNIVDLAVAVVIGTAFTALVTKFTDSIITPLINRIGVNAQSDVGILRIGIGGGQTIDLNVLLSAAINFFLIAFAVYFLVVLPYNTLRKKG
notes: Residues 97-101 are not resolved in the model; also called Mt ∆C
stoichiometry N: 5

Source: PMC6167328, “Elucidating a role for the cytoplasmic domain in the Mycobacterium tuberculosis mechanosensitive channel of large conductance” (Scientific Reports, 2018)
